Legend:
[1] = target: GST-AeIAP1 BIR2 (residues 188-278 of AeIAP1) (A. aegypti); test: pull-down
[2] = target: GST-AeIAP1 BIR1 (residues 24-118 of AeIAP1) (A. aegypti); test: pull-down

% of input bound [1]	% of input bound [2]	Substance
50.2 % of input	79.9 % of input	activated (cleaved) AeDronc: in vitro translated AeDronc partially processed by active recombinant AeDronc
45.2 % of input	70.9 % of input	in vitro translated full length AeDronc (enzyme)

Source: publication PMC3197237
